Source: PMC8322138, “BRCA2 binding through a cryptic repeated motif to HSF2BP oligomers does not impact meiotic recombination” (Nature Communications, 2021)
Where “and” joins values, the source holds several entries; their conditions need not be identical. Equal entries are not always repeated. Ends that are not written are not given here.

What was measured:
GFP-HSF2BP = assay: Co-immunoprecipitation of Flag-BRCA2 variants/fragments with GFP-HSF2BP WT; type: cell-based, human; details: transient HEK293T, anti-GFP beads, immunoblot
From the text: (§1) Expression constructs for producing point mutation and truncation variants of HS2BP and BRCA2 in human cells were engineered as described before[16] in the PiggyBac vectors by Gibson assembly. For transient expression into HEK293T cells plasmid DNA was transfected using calcium precipitation method or PEI transfection. For stable integration into HeLa cells, PiggyBac expression vectors were co-lipofected together with PiggyBac transposase plasmid (hyPBase[45]) with Lipofectamine 3000 (Thermo Fisher).
(§2) Cells were washed twice in ice-cold PBS and lysed in situ in NETT buffer (100 mM NaCl, 50 mM Tris pH 7.5, 5 mM EDTA pH 8.0, 0.5% Triton-X100) supplemented immediately before use with protease inhibitor cocktail (Roche) and 0.4 mg/ml Pefabloc (Roche) (NETT++); 450 µl NETT++ buffer was used per 145 mm dish ES cells, 1 ml for HeLa and HEK293T. After 5–10 min, cells were scraped off and collected in 1.5 ml microcentrifuge tubes; lysis was continued for additional 20–30 min on ice, then mixtures were centrifuged (15 min, 4 °C, 14,000 × g) and the supernatant (input) was added to washed anti-GFP beads (Chromotek). Beads and lysates were incubated 2–4 h at 4 °C while rotating, washed three times in NETT++ buffer and bound proteins were eluted by boiling in 2x Sample buffer. Immunoblotting was performed following standard procedures with the following antibodies: anti-GFP mAb (Roche, #11814460001), anti-GFP pAb (Abcam #ab290 and Invitrogen #A11122), anti-RAD51[46], anti-BRCA2 mAb Ab1 OP-95 (Millipore #OP95), anti-BRCA2 (Abcam #27976), anti-Flag (M2 antibody, Sigma, F3165 and F1804). For quantitative immunoblotting fluorescently labeled secondary antibodies were used: anti-mouse CF680 (Sigma #SAB460199), anti-rabbit CF770 (Sigma #SAB460215); membranes were scanned using Odyssey CLx imaging system (LI-COR).

HSF2BP FL = molecular target: T1, HSF2BP FL (Homo sapiens, UniProt O75031); assay: ITC of BRCA2 fragments with full-length HSF2BP; type: binding; details: discussion statement, read-out: affinity of BRCA2 for HSF2BP
T1 construct: Human full-length HSF2BP WT and R200T were expressed; 6xHis-TEV (N, cleaved yes); made in house; host or cells: E. coli BL21 DE3 Rosetta2
T1 sequence (O75031 1-334): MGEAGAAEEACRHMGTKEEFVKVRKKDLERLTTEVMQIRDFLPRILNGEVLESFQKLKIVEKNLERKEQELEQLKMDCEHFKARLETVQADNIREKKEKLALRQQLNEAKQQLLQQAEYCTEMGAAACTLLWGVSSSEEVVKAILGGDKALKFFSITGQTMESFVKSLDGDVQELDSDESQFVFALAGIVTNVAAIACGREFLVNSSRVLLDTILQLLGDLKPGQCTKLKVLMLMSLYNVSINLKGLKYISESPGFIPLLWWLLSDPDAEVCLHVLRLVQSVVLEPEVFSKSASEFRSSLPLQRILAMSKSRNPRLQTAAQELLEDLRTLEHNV
From the text: Human full-length HSF2BP WT and R200T were expressed using a pETM11 (6xHis-TEV) expression vector in E. coli BL21 DE3 Rosetta2 cells, and purified as previously reported (Brandsma et al., Cell Rep 2019). The armadillo domain of HSF2BP, from aa 122 to aa 334, which we will further name ARM, was similarly expressed using a pETM11 (6xHis-TEV) expression vector in BL21 DE3 Rosetta2 cells and purified as full-length HSF2BP.
Human BRCA2 fragment F0 was expressed using a pET-22b expression vector as a fusion protein comprising BRCA2 from aa 2213 to aa 2342 (including mutation C2332T to avoid oxidation problems), a TEV site, a GB1 and 6xHis tag, in E. coli BL21 DE3 Star cells. The BRCA2 gene was optimized for expression in bacteria and synthesized by Genscript. In addition, smaller BRCA2 fragments were produced using the same strategy: FNMR and F15X corresponding to aa 2252 to aa 2342 and aa 2291 to aa 2343, respectively. The smallest fragment F15X∆12, from aa 2312 to aa 2342, was synthesized by Genecust.
ITC experiments were performed using a high-precision VP-ITC instrument (GE Healthcare) at 293 K. To characterize the interactions between HSF2BP and BRCA2 fragments (WT, variants), the proteins were dialyzed against 25 mM Tris pH 7.5, 250 mM NaCl, 5 mM β-mercaptoethanol. The HSF2BP (or ARM domain) was in the sample cell at 10–20 μM and was titrated by BRCA2 fragments at 40–100 μM, using 10 μL injections with 210 s intervals between each injection. The first 2 μL injection was ignored in the final data analysis. The integration of the peaks corresponding to each injection. the correction for the baseline and the fit were performed using the Origin 7.0 software provided by the manufacturer, to obtain the stoichiometry (N), dissociation constant (Kd), and enthalpy of complex formation (ΔH) for each interaction. Two replicates were performed for each experiment.

BRCA2 (Flag-F9) = assay: Co-immunoprecipitation of GFP-HSF2BP variants with Flag-BRCA2 F9; type: cell-based, human; details: transient HEK293T / stable HeLa, anti-GFP beads, immunoblot
From the text: as §1, §2

[1] = molecular target: T2, armadillo domain of HSF2BP, from aa 122 to aa 334 (ARM) (human, UniProt O75031 122-334); assay: ITC; HSF2BP or ARM in the cell at 10-20 uM, BRCA2 fragment in the syringe at 40-100 uM; 293 K; 25 mM Tris pH 7.5, 250 mM NaCl, 5 mM beta-mercaptoethanol; two replicates; details: both partners purified
T2 construct: Free ARM is a dimer (SEC-MALS); four ARM with two F15X in the complex; A selenomethionine-labelled form was used for the deposited crystal structure; also called HSF2BP ARM; H3 (recombinant); source: E. coli BL21 DE3 Rosetta2, purified (HisTrap, TEV cleavage, SEC)
T2 sequence (looked up): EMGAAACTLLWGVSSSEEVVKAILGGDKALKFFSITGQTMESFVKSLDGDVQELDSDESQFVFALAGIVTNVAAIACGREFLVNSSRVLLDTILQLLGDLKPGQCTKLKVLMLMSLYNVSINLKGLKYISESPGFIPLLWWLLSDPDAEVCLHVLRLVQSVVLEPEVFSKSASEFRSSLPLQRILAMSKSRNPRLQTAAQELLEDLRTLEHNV

**Q.** Which “interaction with HSF2BP (co-precipitation)” value (shortened to “interaction with HSF2BP”) (GFP-HSF2BP) does the source give for “F15: Flag-tagged BRCA2 fragment N2288-T2337 (NLLNEFDRIIENQEKSLKASKSTPDGTIKDRRLFMHHVSLEPITCVPFRT; also: Flag tag, end not given here)” here?
**A.** The value was “minimal interaction region”.

B1: BRCA2: BRCA2 (fragment F0 measured by ITC) (protein)
chain: STYSKDSENYFETEAVEIAKAFMEDDELTDSKLPSHATHSLFTCPENEEMVLSNSRIGKRRGEPLILVGEPSIKRNLLNEFDRIIENQEKSLKASKSTPDGTIKDRRLFMHHVSLEPITTVPFRTTKERQ
**Q.** Which Kd (HSF2BP FL) does the source give for B1 here?
**A.** Its Kd is 1 nM.

B2: S2309N: Flag-BRCA2-F9 variant (protein)
chain: GKRRGEPLILVGEPSIKRNLLNEFDRIIENQEKSLKASKNTPDGTIKDRRLFMHHVSLEPITCVPFRT
modifications: left off: Flag, end not stated, kept
notes: Flag-BRCA2-F9 variant
**Q.** How did the “interaction with HSF2BP” value (GFP-HSF2BP) turn out when B2 was run?
**A.** The value was “either strongly decreased or abolished binding”.

**Q.** And the “interaction with HSF2BP” value (GFP-HSF2BP; listed as S2309)?
**A.** Its value is “did not interact”.

B3: L2304K: Flag-BRCA2-F9 variant (protein)
chain: GKRRGEPLILVGEPSIKRNLLNEFDRIIENQEKSKKASKSTPDGTIKDRRLFMHHVSLEPITCVPFRT
modifications: left off: Flag, end not stated, kept
notes: Flag-BRCA2-F9 variant
**Q.** How did the “interaction with HSF2BP” value (GFP-HSF2BP) turn out when B3 was run?
**A.** The value was “either strongly decreased or abolished binding”.

B4: R2318Q: Flag-BRCA2-F9 variant (protein)
chain: GKRRGEPLILVGEPSIKRNLLNEFDRIIENQEKSLKASKSTPDGTIKDQRLFMHHVSLEPITCVPFRT
modifications: left off: Flag, end not stated, kept
notes: Flag-BRCA2-F9 variant
**Q.** With B4 as the molecule, how does the “interaction with HSF2BP” value (GFP-HSF2BP) read?
**A.** Its value is “either strongly decreased or abolished binding”.

**Q.** What about the “interaction with HSF2BP” value (GFP-HSF2BP; listed as R2318) of the same molecule?
**A.** The value was “did not interact”.

B5: P2329L: Flag-BRCA2-F9 variant (protein)
chain: GKRRGEPLILVGEPSIKRNLLNEFDRIIENQEKSLKASKSTPDGTIKDRRLFMHHVSLELITCVPFRT
modifications: left off: Flag, end not stated, kept
notes: Flag-BRCA2-F9 variant
**Q.** Which results are given for B5?
**A.** interaction with HSF2BP (co-precipitation) (GFP-HSF2BP): either strongly decreased or abolished binding; interaction with HSF2BP (co-precipitation) (GFP-HSF2BP; listed as P2329): did not interact

B6: R200H: GFP-HSF2BP point mutant (protein)
chain: MGEAGAAEEACRHMGTKEEFVKVRKKDLERLTTEVMQIRDFLPRILNGEVLESFQKLKIVEKNLERKEQELEQLKMDCEHFKARLETVQADNIREKKEKLALRQQLNEAKQQLLQQAEYCTEMGAAACTLLWGVSSSEEVVKAILGGDKALKFFSITGQTMESFVKSLDGDVQELDSDESQFVFALAGIVTNVAAIACGHEFLVNSSRVLLDTILQLLGDLKPGQCTKLKVLMLMSLYNVSINLKGLKYISESPGFIPLLWWLLSDPDAEVCLHVLRLVQSVVLEPEVFSKSASEFRSSLPLQRILAMSKSRNPRLQTAAQELLEDLRTLEHNV
modifications: left off: GFP, end not stated, kept
notes: GFP-HSF2BP point mutant
**Q.** With B6 as the molecule, how does the “binding to BRCA2 (co-precipitation)” value (BRCA2 (Flag-F9)) read?
**A.** Its value is “totally abolished binding”.

B7: R200C: GFP-HSF2BP point mutant (protein)
chain: MGEAGAAEEACRHMGTKEEFVKVRKKDLERLTTEVMQIRDFLPRILNGEVLESFQKLKIVEKNLERKEQELEQLKMDCEHFKARLETVQADNIREKKEKLALRQQLNEAKQQLLQQAEYCTEMGAAACTLLWGVSSSEEVVKAILGGDKALKFFSITGQTMESFVKSLDGDVQELDSDESQFVFALAGIVTNVAAIACGCEFLVNSSRVLLDTILQLLGDLKPGQCTKLKVLMLMSLYNVSINLKGLKYISESPGFIPLLWWLLSDPDAEVCLHVLRLVQSVVLEPEVFSKSASEFRSSLPLQRILAMSKSRNPRLQTAAQELLEDLRTLEHNV
modifications: left off: GFP, end not stated, kept
notes: GFP-HSF2BP point mutant
**Q.** With B7 as the molecule, how does the “binding to BRCA2 (co-precipitation)” value (BRCA2 (Flag-F9)) read?
**A.** The value was “totally abolished binding”.

B8: R277E: GFP-HSF2BP point mutant (protein)
chain: MGEAGAAEEACRHMGTKEEFVKVRKKDLERLTTEVMQIRDFLPRILNGEVLESFQKLKIVEKNLERKEQELEQLKMDCEHFKARLETVQADNIREKKEKLALRQQLNEAKQQLLQQAEYCTEMGAAACTLLWGVSSSEEVVKAILGGDKALKFFSITGQTMESFVKSLDGDVQELDSDESQFVFALAGIVTNVAAIACGREFLVNSSRVLLDTILQLLGDLKPGQCTKLKVLMLMSLYNVSINLKGLKYISESPGFIPLLWWLLSDPDAEVCLHVLELVQSVVLEPEVFSKSASEFRSSLPLQRILAMSKSRNPRLQTAAQELLEDLRTLEHNV
modifications: left off: GFP, end not stated, kept
notes: GFP-HSF2BP point mutant
**Q.** How did the “binding to BRCA2 (co-precipitation)” value (BRCA2 (Flag-F9)) turn out when B8 was run?
**A.** Its value is “strongly decreased binding”.

B9: Human BRCA2 fragment FNMR (S2252-Q2342) (domain or fragment, UniProt P51587 2252-2342, looked up)
chain: SLFTCPENEEMVLSNSRIGKRRGEPLILVGEPSIKRNLLNEFDRIIENQEKSLKASKSTPDGTIKDRRLFMHHVSLEPITTVPFRTTKERQ
notes: BRCA2, human, residues 2252-2342; produced by the same strategy as F0 (C2332T); C2332T is stated for F0 and 'our construct'; FNMR was made 'using the same strategy'; source: E. coli BL21 DE3 Star, purified (HisTrap, TEV cleavage, SEC); not shown: GB1, C-terminal, cleaved; His6, C-terminal, cleaved
**Q.** B9 was tested. Which Kd [1] did it give?
**A.** The Kd was 7.8 nM and 13 nM.

**Q.** And the dH [1]?
**A.** The dH was -9.6 kcal/mol and -9.4 kcal/mol.

**Q.** And the “stoichiometry N” value [1]?
**A.** The value was 0.47 and 0.51.

B10: Human BRCA2 fragment F15X (N2291-Q2342) (domain or fragment, UniProt P51587 2291-2342, looked up)
chain: NEFDRIIENQEKSLKASKSTPDGTIKDRRLFMHHVSLEPITTVPFRTTKERQ
notes: BRCA2, human, residues 2291-2342 (methods: aa 2291 to aa 2343); T2332 in the construct; The methods give aa 2291 to aa 2343, results and legend N2291-Q2342; A selenomethionine-labelled form was used for the deposited crystal structure; also called BRCA2 F15X; BRCA2 peptide; source: E. coli BL21 DE3 Star, purified (HisTrap, TEV cleavage, SEC); not shown: GB1, C-terminal, cleaved; His6, C-terminal, …
**Q.** For B10, which Kd [1] is on record?
**A.** The Kd was 10 nM and 9.4 nM.

**Q.** What about the dH [1] of the same molecule?
**A.** The dH was -10.2 kcal/mol and -9.2 kcal/mol.

**Q.** And the “stoichiometry N” value [1]?
**A.** The value was 0.33 and 0.4.
